Assay results taken from patent publication US20230002496A1 (STAIDSON BEIJING BIOPHARMACEUTICALS, published 2023).

T1: human GM-CSFRα, full length on cells (human, UniProt P15509 23-400)
T1 sequence: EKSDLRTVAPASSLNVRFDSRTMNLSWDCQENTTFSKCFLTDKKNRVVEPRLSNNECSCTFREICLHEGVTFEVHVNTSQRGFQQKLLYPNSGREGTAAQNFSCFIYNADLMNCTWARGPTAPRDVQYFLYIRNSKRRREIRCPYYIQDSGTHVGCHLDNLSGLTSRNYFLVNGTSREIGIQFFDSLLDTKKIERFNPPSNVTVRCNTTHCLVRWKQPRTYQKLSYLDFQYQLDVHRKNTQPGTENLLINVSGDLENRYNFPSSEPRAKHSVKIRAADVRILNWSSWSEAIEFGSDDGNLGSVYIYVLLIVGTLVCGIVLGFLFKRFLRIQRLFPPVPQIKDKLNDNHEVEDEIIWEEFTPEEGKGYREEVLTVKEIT


Target: T1, human GM-CSFRα, full length on cells
Assay: cell-based or functional assay

| Binder | IC50, TF-1 cell proliferation |
| --- | --- |
| E35-scFv LA51K (scFv, V domains shown) VH: QMQLVQSGAEVKKPGASVKVSCKVSGYTLTELSIHWVRQAPGKGLEWMGGFDPEDGETIYAQKFQGRVTMTGDTSTDTAYLELSSLRSEDTALYYCATGRYTSLATTYGFDYWGQGTLVTVSS VL: EIVMTQSPATLSLSPGERATLSCRASQSVSSYLAWYQQKPGQAPRLLIYGKSSRATGIPDRFSGSGSGTDFTLTISRLEPEDFAVYYCQQYDNWPYTFGQGTKLEIK | 0.168 µg/mL |
| E35-scFv LA51W (scFv, V domains shown) VH: QMQLVQSGAEVKKPGASVKVSCKVSGYTLTELSIHWVRQAPGKGLEWMGGFDPEDGETIYAQKFQGRVTMTGDTSTDTAYLELSSLRSEDTALYYCATGRYTSLATTYGFDYWGQGTLVTVSS VL: EIVMTQSPATLSLSPGERATLSCRASQSVSSYLAWYQQKPGQAPRLLIYGWSSRATGIPDRFSGSGSGTDFTLTISRLEPEDFAVYYCQQYDNWPYTFGQGTKLEIK | 1.59 µg/mL |
| E35-scFv LA51V (scFv, V domains shown) VH: QMQLVQSGAEVKKPGASVKVSCKVSGYTLTELSIHWVRQAPGKGLEWMGGFDPEDGETIYAQKFQGRVTMTGDTSTDTAYLELSSLRSEDTALYYCATGRYTSLATTYGFDYWGQGTLVTVSS VL: EIVMTQSPATLSLSPGERATLSCRASQSVSSYLAWYQQKPGQAPRLLIYGVSSRATGIPDRFSGSGSGTDFTLTISRLEPEDFAVYYCQQYDNWPYTFGQGTKLEIK | 0.36 µg/mL |
| E35-scFv LA51F (scFv, V domains shown) VH: QMQLVQSGAEVKKPGASVKVSCKVSGYTLTELSIHWVRQAPGKGLEWMGGFDPEDGETIYAQKFQGRVTMTGDTSTDTAYLELSSLRSEDTALYYCATGRYTSLATTYGFDYWGQGTLVTVSS VL: EIVMTQSPATLSLSPGERATLSCRASQSVSSYLAWYQQKPGQAPRLLIYGFSSRATGIPDRFSGSGSGTDFTLTISRLEPEDFAVYYCQQYDNWPYTFGQGTKLEIK | 0.294 µg/mL |
| E35-scFv LA51T (scFv, V domains shown) VH: QMQLVQSGAEVKKPGASVKVSCKVSGYTLTELSIHWVRQAPGKGLEWMGGFDPEDGETIYAQKFQGRVTMTGDTSTDTAYLELSSLRSEDTALYYCATGRYTSLATTYGFDYWGQGTLVTVSS VL: EIVMTQSPATLSLSPGERATLSCRASQSVSSYLAWYQQKPGQAPRLLIYGTSSRATGIPDRFSGSGSGTDFTLTISRLEPEDFAVYYCQQYDNWPYTFGQGTKLEIK | 0.18 µg/mL |
| E35-scFv LA51P (scFv, V domains shown) VH: QMQLVQSGAEVKKPGASVKVSCKVSGYTLTELSIHWVRQAPGKGLEWMGGFDPEDGETIYAQKFQGRVTMTGDTSTDTAYLELSSLRSEDTALYYCATGRYTSLATTYGFDYWGQGTLVTVSS VL: EIVMTQSPATLSLSPGERATLSCRASQSVSSYLAWYQQKPGQAPRLLIYGPSSRATGIPDRFSGSGSGTDFTLTISRLEPEDFAVYYCQQYDNWPYTFGQGTKLEIK | 2.1 µg/mL |
| E35-scFv LA51N (scFv, V domains shown) VH: QMQLVQSGAEVKKPGASVKVSCKVSGYTLTELSIHWVRQAPGKGLEWMGGFDPEDGETIYAQKFQGRVTMTGDTSTDTAYLELSSLRSEDTALYYCATGRYTSLATTYGFDYWGQGTLVTVSS VL: EIVMTQSPATLSLSPGERATLSCRASQSVSSYLAWYQQKPGQAPRLLIYGNSSRATGIPDRFSGSGSGTDFTLTISRLEPEDFAVYYCQQYDNWPYTFGQGTKLEIK | 0.36 µg/mL |
| E35-scFv LA51S (scFv, V domains shown) VH: QMQLVQSGAEVKKPGASVKVSCKVSGYTLTELSIHWVRQAPGKGLEWMGGFDPEDGETIYAQKFQGRVTMTGDTSTDTAYLELSSLRSEDTALYYCATGRYTSLATTYGFDYWGQGTLVTVSS VL: EIVMTQSPATLSLSPGERATLSCRASQSVSSYLAWYQQKPGQAPRLLIYGSSSRATGIPDRFSGSGSGTDFTLTISRLEPEDFAVYYCQQYDNWPYTFGQGTKLEIK | 0.18 µg/mL |
| E35-scFv LA51E (scFv, V domains shown) VH: QMQLVQSGAEVKKPGASVKVSCKVSGYTLTELSIHWVRQAPGKGLEWMGGFDPEDGETIYAQKFQGRVTMTGDTSTDTAYLELSSLRSEDTALYYCATGRYTSLATTYGFDYWGQGTLVTVSS VL: EIVMTQSPATLSLSPGERATLSCRASQSVSSYLAWYQQKPGQAPRLLIYGESSRATGIPDRFSGSGSGTDFTLTISRLEPEDFAVYYCQQYDNWPYTFGQGTKLEIK | 0.81 µg/mL |
| E35-scFv LA51L (scFv, V domains shown) VH: QMQLVQSGAEVKKPGASVKVSCKVSGYTLTELSIHWVRQAPGKGLEWMGGFDPEDGETIYAQKFQGRVTMTGDTSTDTAYLELSSLRSEDTALYYCATGRYTSLATTYGFDYWGQGTLVTVSS VL: EIVMTQSPATLSLSPGERATLSCRASQSVSSYLAWYQQKPGQAPRLLIYGLSSRATGIPDRFSGSGSGTDFTLTISRLEPEDFAVYYCQQYDNWPYTFGQGTKLEIK | 0.5 µg/mL |
| E35-scFv LA51M (scFv, V domains shown) VH: QMQLVQSGAEVKKPGASVKVSCKVSGYTLTELSIHWVRQAPGKGLEWMGGFDPEDGETIYAQKFQGRVTMTGDTSTDTAYLELSSLRSEDTALYYCATGRYTSLATTYGFDYWGQGTLVTVSS VL: EIVMTQSPATLSLSPGERATLSCRASQSVSSYLAWYQQKPGQAPRLLIYGMSSRATGIPDRFSGSGSGTDFTLTISRLEPEDFAVYYCQQYDNWPYTFGQGTKLEIK | 0.264 µg/mL |
| E35-scFv LA51Q (scFv, V domains shown) VH: QMQLVQSGAEVKKPGASVKVSCKVSGYTLTELSIHWVRQAPGKGLEWMGGFDPEDGETIYAQKFQGRVTMTGDTSTDTAYLELSSLRSEDTALYYCATGRYTSLATTYGFDYWGQGTLVTVSS VL: EIVMTQSPATLSLSPGERATLSCRASQSVSSYLAWYQQKPGQAPRLLIYGQSSRATGIPDRFSGSGSGTDFTLTISRLEPEDFAVYYCQQYDNWPYTFGQGTKLEIK | 18.2 µg/mL |
| E35-scFv LA51C (scFv, V domains shown) VH: QMQLVQSGAEVKKPGASVKVSCKVSGYTLTELSIHWVRQAPGKGLEWMGGFDPEDGETIYAQKFQGRVTMTGDTSTDTAYLELSSLRSEDTALYYCATGRYTSLATTYGFDYWGQGTLVTVSS VL: EIVMTQSPATLSLSPGERATLSCRASQSVSSYLAWYQQKPGQAPRLLIYGCSSRATGIPDRFSGSGSGTDFTLTISRLEPEDFAVYYCQQYDNWPYTFGQGTKLEIK | 0.37 µg/mL |

More lines, now with the values ahead:

| IC50, TF-1 cell proliferation | Binder |
| --- | --- |
| 0.93 µg/mL | E35-scFv LG50Q (scFv, V domains shown) VH: QMQLVQSGAEVKKPGASVKVSCKVSGYTLTELSIHWVRQAPGKGLEWMGGFDPEDGETIYAQKFQGRVTMTGDTSTDTAYLELSSLRSEDTALYYCATGRYTSLATTYGFDYWGQGTLVTVSS VL: EIVMTQSPATLSLSPGERATLSCRASQSVSSYLAWYQQKPGQAPRLLIYQASSRATGIPDRFSGSGSGTDFTLTISRLEPEDFAVYYCQQYDNWPYTFGQGTKLEIK |
| 0.25 µg/mL | E35-scFv LG50T (scFv, V domains shown) VH: QMQLVQSGAEVKKPGASVKVSCKVSGYTLTELSIHWVRQAPGKGLEWMGGFDPEDGETIYAQKFQGRVTMTGDTSTDTAYLELSSLRSEDTALYYCATGRYTSLATTYGFDYWGQGTLVTVSS VL: EIVMTQSPATLSLSPGERATLSCRASQSVSSYLAWYQQKPGQAPRLLIYTASSRATGIPDRFSGSGSGTDFTLTISRLEPEDFAVYYCQQYDNWPYTFGQGTKLEIK |
| 0.5 µg/mL | E35-scFv LG50A (scFv, V domains shown) VH: QMQLVQSGAEVKKPGASVKVSCKVSGYTLTELSIHWVRQAPGKGLEWMGGFDPEDGETIYAQKFQGRVTMTGDTSTDTAYLELSSLRSEDTALYYCATGRYTSLATTYGFDYWGQGTLVTVSS VL: EIVMTQSPATLSLSPGERATLSCRASQSVSSYLAWYQQKPGQAPRLLIYAASSRATGIPDRFSGSGSGTDFTLTISRLEPEDFAVYYCQQYDNWPYTFGQGTKLEIK |
| 1.08 µg/mL | E35-scFv LG50I (scFv, V domains shown) VH: QMQLVQSGAEVKKPGASVKVSCKVSGYTLTELSIHWVRQAPGKGLEWMGGFDPEDGETIYAQKFQGRVTMTGDTSTDTAYLELSSLRSEDTALYYCATGRYTSLATTYGFDYWGQGTLVTVSS VL: EIVMTQSPATLSLSPGERATLSCRASQSVSSYLAWYQQKPGQAPRLLIYIASSRATGIPDRFSGSGSGTDFTLTISRLEPEDFAVYYCQQYDNWPYTFGQGTKLEIK |
| 1.3 µg/mL | E35-scFv LG50S (scFv, V domains shown) VH: QMQLVQSGAEVKKPGASVKVSCKVSGYTLTELSIHWVRQAPGKGLEWMGGFDPEDGETIYAQKFQGRVTMTGDTSTDTAYLELSSLRSEDTALYYCATGRYTSLATTYGFDYWGQGTLVTVSS VL: EIVMTQSPATLSLSPGERATLSCRASQSVSSYLAWYQQKPGQAPRLLIYSASSRATGIPDRFSGSGSGTDFTLTISRLEPEDFAVYYCQQYDNWPYTFGQGTKLEIK |
| 1.4 µg/mL | E35-scFv LG50V (scFv, V domains shown) VH: QMQLVQSGAEVKKPGASVKVSCKVSGYTLTELSIHWVRQAPGKGLEWMGGFDPEDGETIYAQKFQGRVTMTGDTSTDTAYLELSSLRSEDTALYYCATGRYTSLATTYGFDYWGQGTLVTVSS VL: EIVMTQSPATLSLSPGERATLSCRASQSVSSYLAWYQQKPGQAPRLLIYVASSRATGIPDRFSGSGSGTDFTLTISRLEPEDFAVYYCQQYDNWPYTFGQGTKLEIK |
| 0.88 µg/mL | E35-scFv LG50D (scFv, V domains shown) VH: QMQLVQSGAEVKKPGASVKVSCKVSGYTLTELSIHWVRQAPGKGLEWMGGFDPEDGETIYAQKFQGRVTMTGDTSTDTAYLELSSLRSEDTALYYCATGRYTSLATTYGFDYWGQGTLVTVSS VL: EIVMTQSPATLSLSPGERATLSCRASQSVSSYLAWYQQKPGQAPRLLIYDASSRATGIPDRFSGSGSGTDFTLTISRLEPEDFAVYYCQQYDNWPYTFGQGTKLEIK |
